From US20210123065

System: Che9c RecT annealase (Mycobacteriophage Che9c)
Test: cell_activity
Settings: oligo recombineering, about 1 ug oligo, M. smegmatis

“180-mer hyg oligo carrying 60 base insertion” gave an activity (recombinants per survivor) of 2e-06.
